% HGF binding inhibition and % binding compared to 5D5 data for four molecules are collected here from US20180327500A1.

Test [1] addresses human MET Fc fusion protein (R&D Systems) (human) (UniProt P08581). Kind of test: BLI; MET-Fc saturated with antibody at 80 ug/ml (533 nM), then HGF as competitor at 20 ug/ml. Background: Biolayer interferometry detects binding as a change in optical thickness at a sensor tip.
The target in test [2] is human MET ECD construct with AA 129-143 exchanged to mouse sequence, on HEK293 cells (human). Description: flow cytometry on transfected HEK293 cells, normalised to 5D5 binding at 3 ug/ml. On the technique in general: A flow cytometer gives signals particle by particle.
For test [3], the target named is human MET ECD construct with H209 mutated to mouse sequence, on HEK293 cells (human) (UniProt P08581). Described as above.

B1: 223C4 antibody analog (antibody, from another filing, IgG1, V domains shown)
VH: EVLLQQSGPELVKPGASVKIPCKASGYTFTDYNMDWVKQSHGMSLEWIGDINPNNGGTIFNQKFKGKATLTVDKSSSTAYMELRSLTSEDTAVYYCARGRYVGYYYAMDYWGQGTSVTVSS
VL: DIQMTQSPASLSVSVGETVTITCRASENIYSNLAWYQQKQGKSPQLLVYAATNLVDGVPSRFSGSGSGTQYSLKINSLQSEDFGSYYCQHFWGPPYTFGGGTKLEIK
The molecule B1 came in with a % HGF binding inhibition in test [1] of 69%.

B2: 36C4 antibody analog (antibody, from another filing, IgG1, V domains shown)
VH: QVQLVESGPGLVKPSQTLSLTCAVSGGSITTNYYYWSWIRQSPGKGLEWMGVIAYDGSTDYSPSLKSRTSISRDTSKNQFSLQLSSVTPEDTAVYYCARDVRVIATGWATANALDAWGQGTLVTVSS
VL: QSVLTQPPSVSGSPGKTVTISCAGTSSDVGYGNYVSWYQQLPGTAPKLLIFAVSYRASGIPDRFSGSKSGNTAFLTISGLQSEDEADYYCASYRSSNNAAVFGGGTHLTVL
With B2, the results for the % binding compared to 5D5 in test [2] and in test [3] were 58% and 43%, respectively. The % HGF binding inhibition in test [1] came to 74%.

B3: 28-MET antibody analog (antibody, from another filing, IgG1, V domains shown)
VH: QVQLQESGPGLVKPGETLSLTCTVSGGSISGYYWSWIRQAPGKGLEWIGEIYYAGSTLYNPSLKGRVTISVDTSKNQFSLKLSSVTAEDTAVYYCARHYGLDWFGDTGMDVWGQGTLVTVSS
VL: DIELTQPPSVSVAPGQSITISCSGDNLGDKYVHWYQQKPGQAPVLVIYDDNERPSGIPERFSGSNSGNTATLTISGTQAEDEADYYCSAYGSHSGTVFGGGTKLTVLG
Take B3: the % HGF binding inhibition in test [1] was found to be 50%.

B4: 13-MET antibody analog (antibody, from another filing, IgG1, V domains shown)
VH: QVQLKESGPALVKPTQTLTLTCTFSGFSLSTSGMVVSWIRQPPGKALEWLAFISWDDDKYYSTSLKTRLTISKDTSKNQVVLTMTNMDPVDTATYYCAREPGRYGGYYFDYWGQGTLVTVSS
VL: DIQMTQSPSSLSASVGDRVTITCRASQTISHYLAWYQQKPGKAPKLLIYAASILQSGVPSRFSGSGSGTDFTLTISSLQPEDFAVYYCQQYSGFPVTFGQGTKVEIKR
In test [1], B4 returned a % HGF binding inhibition of 81%.
